{
  "source": "paper PMC6275156",
  "target": "BB2",
  "assay": "SEC-MALS",
  "data": [
    {"substance": "BB2", "values": [
      {"measurement": "stoichiometry N", "result": 4}
    ]}
  ]
}
